Assay results: patent US20250215104A1 (WALDEN BIOSCIENCES, published 2025)
Each block holds one binder with its values, some of them ahead of it.

Assays:
[1] = target: T1, human soluble urokinase plasminogen activator receptor (suPAR) (human, UniProt Q03405 23-303, limits assumed); assay: off-rate (kdis) screen of scFv clones, biosensor (Octet)
T1 construct: Target antigen of the off-rate screen; also called hsuPAR; human suPAR

[2] = target: T2, cynomolgus soluble urokinase plasminogen activator receptor (suPAR) (cynomolgus, UniProt Q9GK78 23-303, limits assumed); assay: as above
T2 construct: Target antigen of the off-rate screen; also called cynomolgus uPAR; cynomolgus suPAR
T2 sequence (Q9GK78 23-303 limits assumed): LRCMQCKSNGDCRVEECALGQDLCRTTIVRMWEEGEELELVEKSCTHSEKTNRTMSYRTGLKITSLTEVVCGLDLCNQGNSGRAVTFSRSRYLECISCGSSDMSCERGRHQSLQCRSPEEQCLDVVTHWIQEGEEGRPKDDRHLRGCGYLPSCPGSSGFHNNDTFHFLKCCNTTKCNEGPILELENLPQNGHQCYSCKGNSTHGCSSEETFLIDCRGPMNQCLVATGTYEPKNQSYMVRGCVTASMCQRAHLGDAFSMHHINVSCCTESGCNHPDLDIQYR

T1 sequence (Q03405 23-303 limits assumed): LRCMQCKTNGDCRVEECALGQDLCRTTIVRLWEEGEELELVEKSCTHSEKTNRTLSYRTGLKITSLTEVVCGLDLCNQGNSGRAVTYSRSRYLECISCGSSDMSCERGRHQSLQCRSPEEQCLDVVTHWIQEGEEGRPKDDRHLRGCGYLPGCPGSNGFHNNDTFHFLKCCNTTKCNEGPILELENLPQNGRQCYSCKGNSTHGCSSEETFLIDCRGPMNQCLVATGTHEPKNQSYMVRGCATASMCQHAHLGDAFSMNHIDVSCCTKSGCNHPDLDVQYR

B1: suPAR_DB01_A07 (scFv, V domains shown)
VH: QVQLVQSGAEVKKPGASVKVSCKASGGTFTSYYMHWVRQAPGQGLEWMGWIDHENGSTSYDQKFQGRVTMTRDTSTSTVYMELSSLRSEDTAVYYCARGYDVDWFVYWGQGTLVTVSS
VL: DIQMTQSPSSLSASVGDRVTITCSARSSVSYMYWYQQKPGKAPKLLIYRTSNLASGVPSRFSGSGSGTDFTLTISSLQPEDFATYYCQQYHSYPPTFGGGTKVEIK
notes: screened as scFv
koff [1]: 0.00571 s⁻¹
koff [2]: 0.00156 s⁻¹

B2: suPAR_DB01_A10 (scFv, V domains shown)
VH: QVQLVQSGAEVKKPGASVKVSCKASGYTFSNYYMHWVRQAPGQGLEWMGWIDHENGNTIYDQKFQGRVTMTRDTSTSTVYMELSSLRSEDTAVYYCARGYDVDWFVYWGQGTLVTVSS
VL: DIQMTQSPSSLSASVGDRVTITCSARSSVSYMYWYQQKPGKAPKLLIYRTSNLASGVPSRFSGSGSGTDFTLTISSLQPEDFATYYCQQYHSYPPTFGGGTKVEIK
notes: screened as scFv
koff [1]: 0.00194 s⁻¹
koff [2]: 0.000299 s⁻¹

B3: suPAR_DB01_A11 (scFv, V domains shown)
VH: QVQLVQSGAEVKKPGASVKVSCKASGYTFTNYYMHWVRQAPGQGLEWMGWIDHENGNTIYDQKFQGRVTMTRDTSTSTVYMELSSLRSEDTAVYYCARGYDVDWFVYWGQGTLVTVSS
VL: DIQMTQSPSSLSASVGDRVTITCSASQSVSYMYWYQQKPGKAPKLLIYRTSNLASGVPSRFSGSGSGTDFTLTISSLQPEDFATYYCQQYHSYPPTFGGGTKVEIK
notes: screened as scFv
koff [1]: 0.0015 s⁻¹
koff [2]: 0.000479 s⁻¹

B4: suPAR_DB01_A12 (scFv, V domains shown)
VH: QVQLVQSGAEVKKPGASVKVSCKASGYTFTGYYMHWVRQAPGQGLEWMGWIDPEGGNTIYAQKFQGRVTMTRDTSTSTVYMELSSLRSEDTAVYYCARGYDVDWFVYWGQGTLVTVSS
VL: DIQMTQSPSSLSASVGDRVTITCSARSSVSYMYWYQQKPGKAPKLLIYRTSNLASGVPSRFSGSGSGTDFTLTISSLQPEDFATYYCQQYHSYPPTFGGGTKVEIK
notes: screened as scFv
koff [1]: 0.00128 s⁻¹
koff [2]: 0.000142 s⁻¹

B5: suPAR_DB01_B01 (scFv, V domains shown)
VH: QVQLVQSGAEVKKPGASVKVSCKASGYTFTDYYMHWVRQAPGQGLEWMGWIDHENGNTIYDQKFQGRVTMTRDTSTSTVYMELSSLRSEDTAVYYCARGYDVDWFVYWGQGTLVTVSS
VL: DIQMTQSPSSLSASVGDRVTITCSASQSVSYMYWYQQKPGKAPKLLIYRTSNLASGVPSRFSGSGSGTDFTLTISSLQPEDFATYYCQQYHSYPPTFGGGTKVEIK
notes: screened as scFv
koff [1]: 0.0028 s⁻¹
koff [2]: 4.88e-07 s⁻¹

B6: suPAR_DB01_B02 (scFv, V domains shown)
VH: QVQLVQSGAEVKKPGASVKVSCKASGYTFTNYYMHWVRQAPGQGLEWMGWIDHENGNTIYDQKFQGRVTMTRDTSTSTVYMELSSLRSEDTAVYYCARGYDVDWFVYWGQGTLVTVSS
VL: DIQMTQSPSSLSASVGDRVTITCSARSSVSYMYWYQQKPGKAPKLLIYRTSNLASGVPSRFSGSGSGTDFTLTISSLQPEDFATYYCQQYHSYPPTFGGGTKVEIK
notes: screened as scFv
koff [1]: 0.00142 s⁻¹
koff [2]: 0.000177 s⁻¹

B7: suPAR_DB01_B03 (scFv, V domains shown)
VH: QVQLVQSGAEVKKPGASVKVSCKASGFNIKDYYIHWVRQAPGQGLEWMGWIDPENGNTIYAQKFQGRVTMTRDTSTSTVYMELSSLRSEDTAVYYCARGYDVDWFVYWGQGTLVTVSS
VL: DIQMTQSPSSLSASVGDRVTITCRASSSVSYMYWYQQKPGKAPKLLIYRTSNLASGVPSRFSGSGSGTDFTLTISSLQPEDFATYYCQQYHSYPPTFGGGTKVEIK
notes: screened as scFv
koff [1]: 0.00329 s⁻¹
koff [2]: 3.5e-07 s⁻¹

B8: suPAR_DB01_B04 (scFv, V domains shown)
VH: QVQLVQSGAEVKKPGASVKVSCKASGYTFTSYYMHWVRQAPGQGLEWMGWIDHENGNTIYDQKFQGRVTMTRDTSTSTVYMELSSLRSEDTAVYYCARGYDVDWFVYWGQGTLVTVSS
VL: DIQMTQSPSSLSASVGDRVTITCSASSSVSYMYWYQQKPGKAPKLLIYRTSNLASGVPSRFSGSGSGTDFTLTISSLQPEDFATYYCQQYHSYPPTFGGGTKVEIK
notes: screened as scFv
koff [1]: 0.00206 s⁻¹
koff [2]: 8.48e-05 s⁻¹

B9: suPAR_DB01_B05 (scFv, V domains shown)
VH: QVQLVQSGAEVKKPGASVKVSCKASGYTFTNYYMHWVRQAPGQGLEWMGWIDPENGNTIYDQKFQGRVTMTRDTSTSTVYMELSSLRSEDTAVYYCARGYDVDWFVYWGQGTLVTVSS
VL: DIQMTQSPSSLSASVGDRVTITCRASSSVSYMYWYQQKPGKAPKLLIYRTSNLASGVPSRFSGSGSGTDFTLTISSLQPEDFATYYCQQYHSYPPTFGGGTKVEIK
notes: screened as scFv
koff [1]: 0.00407 s⁻¹
koff [2]: 0.000181 s⁻¹

B10: suPAR_DB01_B06 (scFv, V domains shown)
VH: QVQLVQSGAEVKKPGASVKVSCKASGYTFTDYYMHWVRQAPGQGLEWMGWIDHENGNTIYDQKFQGRVTMTRDTSTSTVYMELSSLRSEDTAVYYCARGYDVDWFVYWGQGTLVTVSS
VL: DIQMTQSPSSLSASVGDRVTITCRARSSVSYMYWYQQKPGKAPKLLIYRTSNLASGVPSRFSGSGSGTDFTLTISSLQPEDFATYYCQQYHSYPPTFGGGTKVEIK
notes: screened as scFv
koff [1]: 0.00348 s⁻¹
koff [2]: 5.62e-07 s⁻¹

The remaining lines, values ahead:

koff [1]: 0.00371 s⁻¹
koff [2]: 0.000211 s⁻¹
B11: suPAR_DB01_B08 (scFv, V domains shown)
VH: QVQLVQSGAEVKKPGASVKVSCKASGYTFTGYYMHWVRQAPGQGLEWMGWIDPENGSTIYDQKFQGRVTMTRDTSTSTVYMELSSLRSEDTAVYYCARGYDVDWFVYWGQGTLVTVSS
VL: DIQMTQSPSSLSASVGDRVTITCSARSSVSYMYWYQQKPGKAPKLLIYRTSNLASGVPSRFSGSGSGTDFTLTISSLQPEDFATYYCQQYHSYPPTFGGGTKVEIK
notes: screened as scFv

koff [1]: 0.00105 s⁻¹
koff [2]: 0.00108 s⁻¹
B12: suPAR_DB01_B10 (scFv, V domains shown)
VH: QVQLVQSGAEVKKPGASVKVSCKASGYTFSSYYMHWVRQAPGQGLEWMGWIDPENGSTIYDQKFQGRVTMTRDTSTSTVYMELSSLRSEDTAVYYCARGYDVDWFVYWGQGTLVTVSS
VL: DIQMTQSPSSLSASVGDRVTITCSARQSVSSMYWYQQKPGKAPKLLIYRTSNLASGVPSRFSGSGSGTDFTLTISSLQPEDFATYYCQQYHSYPPTFGGGTKVEIK
notes: screened as scFv

koff [1]: 0.00273 s⁻¹
koff [2]: 8.79e-05 s⁻¹
B13: suPAR_DB01_B11 (scFv, V domains shown)
VH: QVQLVQSGAEVKKPGASVKVSCKASGYTFTDYYMHWVRQAPGQGLEWMGWIDHENGSTSYDQKFQGRVTMTRDTSTSTVYMELSSLRSEDTAVYYCARGYDVDWFVYWGQGTLVTVSS
VL: DIQMTQSPSSLSASVGDRVTITCSARSSVSYMYWYQQKPGKAPKLLIYRTSNLASGVPSRFSGSGSGTDFTLTISSLQPEDFATYYCQQYHSYPPTFGGGTKVEIK
notes: screened as scFv

koff [1]: 0.00298 s⁻¹
koff [2]: 0.000238 s⁻¹
B14: suPAR_DB01_B12 (scFv, V domains shown)
VH: QVQLVQSGAEVKKPGASVKVSCKASGYTFTSYYMHWVRQAPGQGLEWMGWIDPENGNTIYDQKFQGRVTMTRDTSTSTVYMELSSLRSEDTAVYYCARGYDVDWFVYWGQGTLVTVSS
VL: DIQMTQSPSSLSASVGDRVTITCSARSSVSYMYWYQQKPGKAPKLLIYRTSNLASGVPSRFSGSGSGTDFTLTISSLQPEDFATYYCQQYHSYPPTFGGGTKVEIK
notes: screened as scFv

koff [1]: 0.00353 s⁻¹
koff [2]: 0.000234 s⁻¹
B15: suPAR_DB01_C02 (scFv, V domains shown)
VH: QVQLVQSGAEVKKPGASVKVSCKASGYTFNTYYMHWVRQAPGQGLEWMGWIDPENGNTIYDQKFQGRVTMTRDTSTSTVYMELSSLRSEDTAVYYCARGYDVDWFVYWGQGTLVTVSS
VL: DIQMTQSPSSLSASVGDRVTITCSASSSVSYMYWYQQKPGKAPKLLIYRTSSLQSGVPSRFSGSGSGTDFTLTISSLQPEDFATYYCQQYHSYPPTFGGGTKVEIK
notes: screened as scFv

koff [1]: 0.00403 s⁻¹
koff [2]: 0.000303 s⁻¹
B16: suPAR_DB01_C04 (scFv, V domains shown)
VH: QVQLVQSGAEVKKPGASVKVSCKASGYTFTGYYMHWVRQAPGQGLEWMGWIDPEGGSTIYDQKFQGRVTMTRDTSTSTVYMELSSLRSEDTAVYYCARGYDVDWFVYWGQGTLVTVSS
VL: DIQMTQSPSSLSASVGDRVTITCSARSSVSYMYWYQQKPGKAPKLLIYRTSNLASGVPSRFSGSGSGTDFTLTISSLQPEDFATYYCQQYHSYPPTFGGGTKVEIK
notes: screened as scFv

koff [1]: 0.00164 s⁻¹
koff [2]: 2.66e-05 s⁻¹
B17: suPAR_DB01_C07 (scFv, V domains shown)
VH: QVQLVQSGAEVKKPGASVKVSCKASGYTFTSYYMHWVRQAPGQGLEWMGWIDHENGSTSYDQKFQGRVTMTRDTSTSTVYMELSSLRSEDTAVYYCARGYDVDWFVYWGQGTLVTVSS
VL: DIQMTQSPSSLSASVGDRVTITCRARQSVSYMYWYQQKPGKAPKLLIYRTSNLASGVPSRFSGSGSGTDFTLTISSLQPEDFATYYCQQYHSYPPTFGGGTKVEIK
notes: screened as scFv

koff [1]: 0.0013 s⁻¹
koff [2]: 0.00042 s⁻¹
B18: suPAR_DB01_C08 (scFv, V domains shown)
VH: QVQLVQSGAEVKKPGASVKVSCKASGYTFTGYYMHWVRQAPGQGLEWMGWIDHENGNTIYAQKFQGRVTMTRDTSTSTVYMELSSLRSEDTAVYYCARGYDVDWFVYWGQGTLVTVSS
VL: DIQMTQSPSSLSASVGDRVTITCSARSSVSYMYWYQQKPGKAPKLLIYRTSNLASGVPSRFSGSGSGTDFTLTISSLQPEDFATYYCQQYHSYPPTFGGGTKVEIK
notes: screened as scFv

koff [1]: 0.00476 s⁻¹
koff [2]: 0.000203 s⁻¹
B19: suPAR_DB01_C09 (scFv, V domains shown)
VH: QVQLVQSGAEVKKPGASVKVSCKASGFNIKDYYIHWVRQAPGQGLEWMGWIDPENGNTIYAQKFQGRVTMTRDTSTSTVYMELSSLRSEDTAVYYCARGYDVDWFVYWGQGTLVTVSS
VL: DIQMTQSPSSLSASVGDRVTITCSARSSVSYMYWYQQKPGKAPKLLIYRTSNLASGVPSRFSGSGSGTDFTLTISSLQPEDFATYYCQQYHSYPPTFGGGTKVEIK
notes: screened as scFv

koff [1]: 0.00363 s⁻¹
koff [2]: 0.000266 s⁻¹
B20: suPAR_DB01_C10 (scFv, V domains shown)
VH: QVQLVQSGAEVKKPGASVKVSCKASGYTFTNYYMHWVRQAPGQGLEWMGWIDPENGNTIYAQKFQGRVTMTRDTSTSTVYMELSSLRSEDTAVYYCARGYDVDWFVYWGQGTLVTVSS
VL: DIQMTQSPSSLSASVGDRVTITCRARSSISYMYWYQQKPGKAPKLLIYRTSNLASGVPSRFSGSGSGTDFTLTISSLQPEDFATYYCQQYHSYPPTFGGGTKVEIK
notes: screened as scFv

koff [1]: 0.00226 s⁻¹
koff [2]: 8.96e-05 s⁻¹
B21: suPAR_DB01_C11 (scFv, V domains shown)
VH: QVQLVQSGAEVKKPGASVKVSCKASGGTFTSYYMHWVRQAPGQGLEWMGWIDPENGSTIYDQKFQGRVTMTRDTSTSTVYMELSSLRSEDTAVYYCARGYDVDWFVYWGQGTLVTVSS
VL: DIQMTQSPSSLSASVGDRVTITCSARSSVSYMYWYQQKPGKAPKLLIYRTSNLASGVPSRFSGSGSGTDFTLTISSLQPEDFATYYCQQYHSYPPTFGGGTKVEIK
notes: screened as scFv
